1 molecule from PMC9225675 (mAbs, 2022) can be followed below.

The assay has as its target T1, LukF component of Panton-Valentine Leukocidin (LukF-PV) (Staphylococcus aureus, strain ).
T1 chain: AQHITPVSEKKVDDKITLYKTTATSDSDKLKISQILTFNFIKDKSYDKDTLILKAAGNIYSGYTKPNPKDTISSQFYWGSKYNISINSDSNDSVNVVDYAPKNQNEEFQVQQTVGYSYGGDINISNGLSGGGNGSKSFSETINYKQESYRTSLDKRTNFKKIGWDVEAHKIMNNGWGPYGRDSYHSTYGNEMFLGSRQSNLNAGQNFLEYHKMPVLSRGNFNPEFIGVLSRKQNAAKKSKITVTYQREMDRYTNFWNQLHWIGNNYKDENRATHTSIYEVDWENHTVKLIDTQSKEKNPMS
Briefly: BLI. On the technique in general: BLI is a label-free optical method that tracks binding on a fibre tip over time.

B1: H5 mAb (broadly neutralizing antibody) (antibody, V domains shown)
VH: EVQLQESGPGLVRPSETLSLTCAVSGYSISSGMGWGWIRQPPGKGLEWIGSIDQRGSTYYNPSLKSRVTISVDTSKNQFSLKLSSVTAADTAVYYCARDAGHAVDMDVWGKGTTVTVSS
VL: DIQMTQSPSSVSASVGDRVTITCRASQGISRWLAWYQQKPGKAPKLLIYAASSLQSGVPSRFSGSGSGTDFTLTISSLQPEDFATYYCQQGYVFPLTFGGGTKVEIK
In the case of B1, the Kd (as a rule, a measure of binding affinity in units of concentration) was 400 pM.
